For one series, the target named is ZIKV NS5 MTase domain WT (Zika virus, UniProt A0A142I5B9 2521-2785). The series is described as follows: fluorescence anisotropy; buffer B2; B1: 50 mM Tris-HCl pH 8.0, 150 mM NaCl, 1 mM MgCl2, 2 mM beta-mercaptoethanol, 10% glycerol, 20 C; B2: same with 100 mM NaCl, 20 C. Particulars: protein: recombinant; tags: N-terminal His6; label: etheno-A fluorescence; single strand. (Polarisation of emitted light reports the rotation of a fluorescent probe.)

Another series has as its target ZIKV NS5 WT (Zika virus, UniProt A0A024B7W1 2521-3423). The series is described as follows: fluorescence titration; buffer B1; B1: 50 mM Tris-HCl pH 8.0, 150 mM NaCl, 1 mM MgCl2, 2 mM beta-mercaptoethanol, 10% glycerol, 20 C; B2: same with 100 mM NaCl, 20 C. Particulars: protein: recombinant; tags: N-terminal His6-SUMO, cleaved; label: etheno-A fluorescence; single strand.

B1: epsilonA(p-epsilonA)19 20-mer ssRNA (ssRNA)
RNA: AAAAAAAAAAAAAAAAAAAA
modifications: all A etheno-modified (1,N6-ethenoadenosine)
One may read the Kd as a measure of binding affinity in units of concentration. As to B1, the Kd with ZIKV NS5 MTase domain WT stood at 910 nM; with ZIKV NS5 WT, 500 nM.

These data come from paper PMC7413259, “Identification of the viral RNA promoter stem loop A (SLA)-binding site on Zika virus polymerase NS5”.
